In PMC4971492, “Structural basis for misregulation of kinesin KIF21A autoinhibition by CFEOM1 disease mutations” (Scientific Reports, 2016):

Molecular target: the molecule itself
Experiment: cross-linking; cysteine (disulfide) cross-linking in COS-7 lysates, 1 h room temperature, SDS-PAGE under reducing and non-reducing conditions, anti-GFP Western blot

B1: GFP-labelled CLIP-115 (natural protein)
chain: not shown
notes: CLIP-115 (CAP-Gly domain-containing linker protein 2); Species surmised as rat; source: COS-7, transfected, in lysate; not shown: GFP (monomeric), N-terminal, kept
B1 was tested, and the “stoichiometry N” value was 2.
